This note sets out measurements from the supplement of paper PMC10567573.

The data set in a line: protein stability index of a GFP-peptide fusion (GPS, HEK-293T) (PSI 1-6); higher = more stable.
Setting [1] is: treatment: DMSO, c terminus: a fixed tail appended.
The mark [2] stands for this setting: treatment: MLN4924 1 uM, 8 h, c terminus: a fixed tail appended.

± gives the standard deviation.
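Also: 24-mer peptide tiles fused after GFP, lentivirally expressed, FACS-sorted into six equal bins by GFP/DsRed ratio, decoded by Illumina sequencing, PSI is the read-weighted mean bin number.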

As to NMPKDHPVSCCLGLLLESLVPFIV [DYNC2LI1], the protein stability index was determined as 2.53 ± 0.23 under setting [1] and 2.57 ± 0.5 under setting [2].
With NNCAFLESSAKSKINVNEIFYDLV [RAP1B], the protein stability index is, setting by setting: under setting [1], 2.44 ± 0.45; under setting [2], 2.07 ± 0.34.
As to NRDSYFYAAIVAVVAVHVVLALFV [VMA21], the protein stability index was 2.3 ± 0.16 under setting [1] and 2 ± 0.2 under setting [2].
With NRFEVTLEKSNKNFSKKIQQIHVV [VPS39], the protein stability index reads like this: under setting [1], 2.36 ± 0.4; under setting [2], 2.42 ± 0.22.
With NRRRFRVRQPILQYRWDMMHRLGE [BEX1], the protein stability index under setting [1] came out at 2.31 ± 0.15 and the protein stability index under setting [2] stood at 2.17 ± 0.29.
In the case of NRVWSISQEPDPVQRLQAYTATEQ [TRIM14], the protein stability index stood at 4.09 ± 0.31 under setting [1] and 3.97 ± 0.31 under setting [2].
Regarding NSQALLLHSSILTCTLLLLYSLAP [MFSD9], the protein stability index by setting is: under setting [1], 3.23 ± 0.12; under setting [2], 3.08 ± 0.52.
Take NTHAKSILNSMNSLRKSNTLCDVT [KLHL12]: the protein stability index was determined as 2.82 ± 0.4 under setting [1] and 3.27 ± 0.43 under setting [2].
Turning to NTTVIPNGSMAMGTVPGQAPRLAV [LYSMD4], the protein stability index by setting is: under setting [1], 3.69 ± 0.32; under setting [2], 3.5 ± 0.23.
The corresponding values for NVISELNIEDYFSHHLAVYNSPQF [FBXO39] are 2.31 ± 0.29 and 2.32 ± 0.34.
In the case of NVPNPRIKLIDFGIAHKIEAGNEF [DAPK3], the protein stability index is, setting by setting: under setting [1], 3.2 ± 0.087; under setting [2], 3.1 ± 0.35.
NYEKEEEFLTNELSRKLMQLQHEK [CCDC6]: the protein stability index under setting [1] is 4.43 ± 0.15 and the protein stability index under setting [2] came to 4.55 ± 0.38.
Turning to PAARRCHSCVQIKNDVFICGGYNG [KLHDC10], the protein stability index worked out at 2.29 ± 0.42 under setting [1] and 2.43 ± 0.2 under setting [2].
In turn, PAATFGADDLVLTLSNPQMSLEGT [ELF3] showed a protein stability index under setting [1] of 4.24 ± 0.3 and a protein stability index under setting [2] of 4.32 ± 0.23.
Sequence PAFKSMEVANFYYEADCLAAAYGG [CEBPB] returned a protein stability index under setting [1] of 2.83 ± 0.25 and a protein stability index under setting [2] of 2.96 ± 0.13.
In the case of PAMQRYVKRLHEVGRTEPELLVAH [HMOX1], the protein stability index is, setting by setting: under setting [1], 3.1 ± 0.29; under setting [2], 3.37 ± 0.29.
In turn, PAMSPYWRTWMTITQSWQVSVRVQ [C22orf15] registered a protein stability index under setting [1] of 2.51 ± 0.41 and a protein stability index under setting [2] of 2.74 ± 0.3.
The corresponding values for PAPQVGTQIRTITEEIRDGKVISS [KRT36] are 5.08 ± 0.2 and 5.17 ± 0.23.
Take PASEKKPVPPSEGKSRLSPAGEMK [BCL2L13]: the protein stability index by setting is: under setting [1], 5.28 ± 0.19; under setting [2], 5.27 ± 0.084.
On the same counts, the results for PAVPFAPHFLQGGPFPLPYTAPGG [TBX6] are 2.95 ± 0.097 and 3.03 ± 0.14.
The corresponding values for PCIRNVTSPTRQHHVEREKDHSSS [BTBD10] are 5.23 ± 0.14 and 5.02 ± 0.42.
The corresponding values for PDAWCDLSKFDLPEEPSAEDSINN [MYBL2] are 5.52 ± 0.12 and 5.42 ± 0.31.
On to PECRQVLKTSRKDVKDKETTENEN [CHGB], for which the protein stability index reads like this: under setting [1], 5.54 ± 0.3; under setting [2], 5.45 ± 0.37.
PEEMATYLRYVRRLDFFEKPDYEY [CSNK1G1] showed a protein stability index under setting [1] of 2.34 ± 0.26 and a protein stability index under setting [2] of 2.26 ± 0.55.
For PEGVNKLKISPVTLKEAYVQKLVK [TENT5C], the protein stability index is, setting by setting: under setting [1], 2.94 ± 0.35; under setting [2], 2.93 ± 0.41.
The corresponding values for PEIDMFLNVATFLDPRYKRLPFLS [ZBED1] are 2.42 ± 0.43 and 2.25 ± 0.48.
Consider PENVEDSGLDSPSHAAPGPSPDSW [FCHO1], for which the protein stability index reads like this: under setting [1], 5.37 ± 0.13; under setting [2], 5.46 ± 0.2.
Consider PGAFIAGVPVQPVLIRYPNSLDTT [LPCAT4], for which the protein stability index by setting is: under setting [1], 2.72 ± 0.19; under setting [2], 2.75 ± 0.36.
Take PGDCFLLLVLLLYAPVGFCLLVLR [AUP1]: the protein stability index under setting [1] was 3.1 ± 0.44 and the protein stability index under setting [2] came to 3.13 ± 0.35.
In the case of PGDMKTKMELLILETQAQVCQALA [CPOX], the protein stability index runs as follows: under setting [1], 2.31 ± 0.26; under setting [2], 2.37 ± 0.34.
For the sequence PGEGLLISWAFTDRPDLSLTVLPK [C2CD2L], the protein stability index worked out at 2.64 ± 0.48 under setting [1] and 2.37 ± 0.44 under setting [2].
Take PGGPRNLKPTASKLGAPLSGLQGL [PDLIM4]: the protein stability index came out at 3.54 ± 0.21 under setting [1] and 3.54 ± 0.053 under setting [2].
On to PGLPPVPGAPGMPPGIPPLMPGVP [ZNF207], for which the protein stability index worked out at 4.41 ± 0.2 under setting [1] and 4.5 ± 0.24 under setting [2].
The corresponding values for PHDFIEHFLSKMPEAEENKQIIRK [CCND1] are 3.96 ± 0.21 and 4.27 ± 0.22.
On the same counts, the results for PIGELYGLSESSGPHTISNQNNYR [ACSBG2] are 3.91 ± 0.31 and 4.07 ± 0.57.
On the same counts, the results for PIIVVPDPPSSSEECPAHLLEDPL [RHOBTB2] are 5.2 ± 0.1 and 4.81 ± 0.3.
On to PILQGQIDALLEFDVHPNELTNGV [SNAP91], for which the protein stability index is 3.42 ± 0.29 under setting [1] and 3.4 ± 0.45 under setting [2].
On to PISLQATPATPATLSASSSAGGSR [TFE3], for which the protein stability index is 4.51 ± 0.18 under setting [1] and 4.87 ± 0.11 under setting [2].
PKMRSKEQILELLVLEQFLTILPT [ZNF449] came in with a protein stability index under setting [1] of 3.07 ± 0.96 and a protein stability index under setting [2] of 3.36 ± 0.73.
As to PKRRMRYFDPLRNEYFFDRNRPSF [KCNA3], the protein stability index is, setting by setting: under setting [1], 2.37 ± 0.26; under setting [2], 2.6 ± 0.65.
As for PLEYQFKSQIMSLSHSPQEDWVLL [TLE6], the protein stability index is, setting by setting: under setting [1], 2.26 ± 0.29; under setting [2], 2.37 ± 0.4.
Regarding PLFNPMIYSLRNKEFKSALCKIVR [OR10K2], the protein stability index runs as follows: under setting [1], 2.32 ± 0.071; under setting [2], 1.9 ± 0.5.
On the same counts, the results for PLGLEADMWSIGVITYILLSGASP [DAPK3] are 2.52 ± 1.4 and 2.27 ± 0.23.
The corresponding values for PLLQSIHQLDFVQVKASSPVPATP [TRIM9] are 3.02 ± 0.18 and 3.2 ± 0.21.
On to PLPAGVPPLEDFEVLDGVEDAEGE [FKBP8], for which the protein stability index under setting [1] was 5.64 ± 0.26 and the protein stability index under setting [2] was 5.44 ± 0.46.
PNFMKVIPAVSISYVVYENLKITL [SLC25A25] had a protein stability index under setting [1] of 3.2 ± 0.4 and a protein stability index under setting [2] of 3.46 ± 0.52.
For PNINKISMQAVLDYLYTKQLSPNL [RHOBTB1], the protein stability index runs as follows: under setting [1], 2.25 ± 0.68; under setting [2], 2.16 ± 0.31.
In the case of PNVYPAAPQGGMAALNMSLGMVTP [ADD1], the protein stability index by setting is: under setting [1], 3.26 ± 0.28; under setting [2], 3.25 ± 0.21.
Regarding PPASPPADGSPPLLPPGEPPLLGT [ANKRD40], the protein stability index worked out at 5.17 ± 0.26 under setting [1] and 5.42 ± 0.14 under setting [2].
As for PPKAPPPVIKIPECPSMGTNEAAC [RHOBTB1], the protein stability index by setting is: under setting [1], 4.71 ± 0.23; under setting [2], 4.86 ± 0.2.
Consider PPMGKAFQELAGKELCAMSEEQFR [SPDEF], for which the protein stability index runs as follows: under setting [1], 4.3 ± 0.25; under setting [2], 4.4 ± 0.34.
Consider PQQGFFSSFFTCNQKCQLRLLKTL [ATP23], for which the protein stability index came out at 2.36 ± 0.4 under setting [1] and 2.13 ± 0.3 under setting [2].
Sequence PQVRDWSHYFKIIEDLRAQIFANT [KRT18] returned a protein stability index under setting [1] of 2.52 ± 0.36 and a protein stability index under setting [2] of 2.64 ± 0.46.
On to PQVSAHHRSQESLTSQESEDTYL [TBC1D10A], for which the protein stability index runs as follows: (treatment: DMSO, c terminus: native) 5.4 ± 0.18; (treatment: MLN4924 1 uM, 8 h, c terminus: native) 5.51 ± 0.16.
With PRAVLKPRRVCVGGKRRRDDISVD [PPP2R2C], the protein stability index reads like this: under setting [1], 4.02 ± 0.18; under setting [2], 4.25 ± 0.39.
Turning to PRHQGHRVQPVKDTAHDFRAKCRN [TRIM35], the protein stability index stood at 4.57 ± 0.15 under setting [1] and 4.65 ± 0.24 under setting [2].
As to PRICQRNLMSLLMAVRPSLPESGL [FANCE], the protein stability index is 2.4 ± 0.6 under setting [1] and 2.21 ± 0.27 under setting [2].
Regarding PRRSLSISKNKKKASNSIISCFNN [FAN1], the protein stability index by setting is: under setting [1], 2.79 ± 0.13; under setting [2], 3.75 ± 0.29.
For the sequence PSAPEALHSLPGVSLSLENRELWK [TBX6], the protein stability index is, setting by setting: under setting [1], 3.94 ± 0.19; under setting [2], 3.96 ± 0.33.
As for PSGFKHVSHVGWDPQNGFDVNNLD [WAS], the protein stability index amounted to 3.83 ± 0.24 under setting [1] and 3.79 ± 0.58 under setting [2].
Sequence PSIMPQKHWVYVKRGGNCPAPAPL [ZBTB22] registered a protein stability index under setting [1] of 2.85 ± 0.19 and a protein stability index under setting [2] of 2.81 ± 0.32.
For PSPQLDTQQEIKLCQKSNDISIHH [WDR41], the protein stability index was 4.41 ± 0.51 under setting [1] and 4.49 ± 0.05 under setting [2].
The corresponding values for PSTLLPTPEEQGELEPLKGNFDWE [FOXJ1] are 5.17 ± 0.068 and 5.16 ± 0.29.
The corresponding values for PTPIFAGGANDRWVRSVSFSHDGL [WSB1] are 2.61 ± 0.19 and 2.99 ± 0.64.
Take PVDAEALELHDYHDIIKHPMDLST [BRD3]: the protein stability index is 4.63 ± 0.34 under setting [1] and 4.67 ± 0.32 under setting [2].
On the same counts, the results for PVIKIPECPSMGTNEAACLLDNPL [RHOBTB1] are 4.33 ± 0.16 and 4.41 ± 0.24.
Consider PVKPVTFSTGIKMGQHISLAPIHK [MNAT1], for which the protein stability index amounted to 2.96 ± 0.34 under setting [1] and 2.96 ± 0.32 under setting [2].
Turning to PVLAVVFIICIVIAILLYKSKPDR [PTPRD], the protein stability index stood at 2.94 ± 1.7 under setting [1] and 2.87 ± 0.63 under setting [2].
For the sequence PVPTGFFNMWGFGRVSKQASQPVK [WDR41], the protein stability index under setting [1] worked out at 2.84 ± 0.25 and the protein stability index under setting [2] turned out to be 2.8 ± 0.21.
On the same counts, the results for PVYSVPQLLSAMGSLCSLWFGASV [SCNN1D] are 3.06 ± 0.056 and 3.37 ± 0.59.
On to PYLRGTIKMMQAVRQAFQDQDDRR [GFOD1], for which the protein stability index reads like this: under setting [1], 3.32 ± 0.17; under setting [2], 3.56 ± 0.34.
With QADLELIESAHRSRIKVLETSYQQ [FBF1], the protein stability index reads like this: under setting [1], 5.22 ± 0.16; under setting [2], 5.11 ± 0.12.
